Details in all cases: Homo sapiens
Substrate in data set [1]: Cc1ccc(OCCNc2nc(Nc3cc(C)[nH]n3)cc(C)c2C#N)cn1
Description: Activity at Aurora 1 kinase (unknown origin)
Substrate in data set [2]: Cc1ccc(OCCNc2nc(Nc3cc(C)[nH]n3)cc(C)c2C#N)cn1
This is another data set of the same source.
Description: Activity at LYN (unknown origin)

Substrate in data set [3]: Cc1ccc(OCCNc2nc(Nc3cc(C)[nH]n3)cc(C)c2C#N)cn1
Description: Activity at Aurora 2 kinase (unknown origin)
This is another data set of the same source.

As a reminder, the Km is the concentration of substrate that gives half-maximal velocity.

B1: Aurora kinase B (Homo sapiens), Q96GD4 (protein)
chain: MAQKENSYPWPYGRQTAPSGLSTLPQRVLRKEPVTPSALVLMSRSNVQPTAAPGQKVMENSSGTPDILTRHFTIDDFEIGRPLGKGKFGNVYLAREKKSHFIVALKVLFKSQIEKEGVEHQLRREIEIQAHLHHPNILRLYNYFYDRRRIYLILEYAPRGELYKELQKSCTFDEQRTATIMEELADALMYCHGKKVIHRDIKPENLLLGLKGELKIADFGWSVHAPSLRRKTMCGTLDYLPPEMIEGRMHNEKVDLWCIGVLCYELLVGNPPFESASHNETYRRIVKVDLKFPASVPMGAQDLISKLLRHNPSERLPLAQVSAHPWVRANSRRVLPPSALQSVA
On to B1, for which the Km in data set [1] was determined as 30 µM.

B2: Tyrosine-protein kinase Lyn (Homo sapiens), P07948 (protein)
chain: MGCIKSKGKDSLSDDGVDLKTQPVRNTERTIYVRDPTSNKQQRPVPESQLLPGQRFQTKDPEEQGDIVVALYPYDGIHPDDLSFKKGEKMKVLEEHGEWWKAKSLLTKKEGFIPSNYVAKLNTLETEEWFFKDITRKDAERQLLAPGNSAGAFLIRESETLKGSFSLSVRDFDPVHGDVIKHYKIRSLDNGGYYISPRITFPCISDMIKHYQKQADGLCRRLEKACISPKPQKPWDKDAWEIPRESIKLVKRLGAGQFGEVWMGYYNNSTKVAVKTLKPGTMSVQAFLEEANLMKTLQHDKLVRLYAVVTREEPIYIITEYMAKGSLLDFLKSDEGGKVLLPKLIDFSAQIAEGMAYIERKNYIHRDLRAANVLVSESLMCKIADFGLARVIEDNEYTAREGAKFPIKWTAPEAINFGCFTIKSDVWSFGILLYEIVTYGKIPYPGRTNADVMTALSQGYRMPRVENCPDELYDIMKMCWKEKAEERPTFDYLQSVLDDFYTATEGQYQQQP
As to B2, in data set [2], the Km came to 1000 µM.

B3: Aurora kinase A (Homo sapiens), O14965 (protein)
chain: MDRSKENCISGPVKATAPVGGPKRVLVTQQFPCQNPLPVNSGQAQRVLCPSNSSQRIPLQAQKLVSSHKPVQNQKQKQLQATSVPHPVSRPLNNTQKSKQPLPSAPENNPEEELASKQKNEESKKRQWALEDFEIGRPLGKGKFGNVYLAREKQSKFILALKVLFKAQLEKAGVEHQLRREVEIQSHLRHPNILRLYGYFHDATRVYLILEYAPLGTVYRELQKLSKFDEQRTATYITELANALSYCHSKRVIHRDIKPENLLLGSAGELKIADFGWSVHAPSSRRTTLCGTLDYLPPEMIEGRMHDEKVDLWSLGVLCYEFLVGKPPFEANTYQETYKRISRVEFTFPDFVTEGARDLISRLLKHNPSQRPMLREVLEHPWITANSSKPSNCQNKESASKQS
Regarding B3, in data set [3], the Km turned out to be 28 µM.

These data come from ChEMBL document CHEMBL3871290, “3-Cyano-6-(5-methyl-3-pyrazoloamino) pyridines (Part 2): A dual inhibitor of Aurora kinase and tubulin polymerization” (Bioorg Med Chem Lett, 2016).
